Target: rabbit anti-CS141 peptide antiserum raised against unconjugated peptide SEQUENCE ID NO 26
Assay: competition Western blot; antiserum pre-incubated with varying concentrations of peptide immunogen

B1: CS141 synthetic peptide SEQUENCE ID NO 26 (peptide)
peptide: GPTMCFEDRMIMSPVKNNVGRGLNIALVNGTTGAVLGQK
**Q.** Which concentration of peptide at which antibody binding to the band was inhibited does the source give for B1 here?
**A.** The concentration of peptide at which antibody binding to the band was inhibited was 2.54 µM.

Reference: US6867016
